# Source: paper PMC5679641 (PLoS Pathogens, 2017)
# “And” between values parts separate entries of the source, which are not always exact repeats. Equal values may be shown once.
# T1: p105, Nluc- or YFP-tagged (BRET) (UniProt P19838 1-968)
# T1 construct: also called NFκB1(p105/p50)
# T1 sequence (looked up): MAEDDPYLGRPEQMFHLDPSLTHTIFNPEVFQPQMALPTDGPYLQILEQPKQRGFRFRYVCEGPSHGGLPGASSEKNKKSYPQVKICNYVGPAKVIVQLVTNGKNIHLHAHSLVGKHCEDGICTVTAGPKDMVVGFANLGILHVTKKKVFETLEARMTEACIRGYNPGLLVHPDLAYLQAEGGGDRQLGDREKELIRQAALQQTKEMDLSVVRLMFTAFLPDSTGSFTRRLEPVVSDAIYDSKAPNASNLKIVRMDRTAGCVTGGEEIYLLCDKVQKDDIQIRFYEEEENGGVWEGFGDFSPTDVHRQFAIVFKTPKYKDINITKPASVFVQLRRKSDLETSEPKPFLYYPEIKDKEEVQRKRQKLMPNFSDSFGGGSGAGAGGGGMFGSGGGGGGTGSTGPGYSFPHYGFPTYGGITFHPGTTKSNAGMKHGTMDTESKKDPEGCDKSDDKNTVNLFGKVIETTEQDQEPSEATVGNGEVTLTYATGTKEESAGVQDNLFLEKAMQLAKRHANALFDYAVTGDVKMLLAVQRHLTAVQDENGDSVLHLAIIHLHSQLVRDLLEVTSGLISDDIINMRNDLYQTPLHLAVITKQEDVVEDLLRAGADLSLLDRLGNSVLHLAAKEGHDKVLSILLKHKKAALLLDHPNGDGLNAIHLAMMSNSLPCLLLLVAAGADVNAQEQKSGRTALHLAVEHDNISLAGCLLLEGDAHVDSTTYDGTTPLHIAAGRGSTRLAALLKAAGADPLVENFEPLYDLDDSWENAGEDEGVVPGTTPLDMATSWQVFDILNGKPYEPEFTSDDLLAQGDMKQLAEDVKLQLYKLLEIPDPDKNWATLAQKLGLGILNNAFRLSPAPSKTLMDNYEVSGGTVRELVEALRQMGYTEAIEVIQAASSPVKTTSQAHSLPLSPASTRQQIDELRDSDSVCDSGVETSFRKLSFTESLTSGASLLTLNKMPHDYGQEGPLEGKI
# B1: ABIN2, Nluc- or YFP-tagged (BRET) (natural protein, human, UniProt Q8NFZ5-1 1-429, looked up)
# chain: MSRDPGSGGWEEAPRAAAALCTLYHEAGQRLRRLQDQLAARDALIARLRARLAALEGDAAPSLVDALLEQVARFREQLRRQEGGAAEAQMRQEIERLTERLEEKEREMQQLLSQPQHEREKEVVLLRRSMAEGERARAASDVLCRSLANETHQLRRTLTATAHMCQHLAKCLDERQHAQRNVGERSPDQSEHTDGHTSVQSVIEKLQEENRLLKQKVTHVEDLNAKWQRYNASRDEYVRGLHAQLRGLQIPHEPELMRKEISRLNRQLEEKINDCAEVKQELAASRTARDAALERVQMLEQQILAYKDDFMSERADRERAQSRIQELEEKVASLLHQVSWRQDSREPDAGRIHAGSKTAKYLAADALELMVPGGWRPGTGSQQPEPPAEGGHPGAAQRGQGDLQCPHCLQCFSDEQGEELLRHVAECCQ
# notes: also called TNIP2
# B2: ABIN2, Glu1- or Glu2-tagged (PCA) (natural protein, human, UniProt Q8NFZ5-1 1-429, looked up)
# chain: B1 chain
# B3: MSAD, YFP-tagged (BRET) (natural protein)
# chain: MNLLRKIVKNRRDEDTQKSSPASAPLDDDDLWLPPPEYVPLKELTGKKNMRNFCINGRVKVCSPNGYSFRILRHILKSFDEIYSGNHRMIGLVKVVIGLALSGSPVPEGLNWVYKLRRTFIFQWADSRGPLEGEELEYSQEITWDDDTEFVGLQIRVIAKQCHIQGRVWCINMNPRACQLWSDMSLQTQRSEEDKDSSLLLE
# Legend:
# [1] = target: ABIN2, Nluc- or YFP-tagged (BRET) (human) (UniProt Q8NFZ5); assay: FRET or BRET
# [2] = target: RelAp43, Nluc- or YFP-tagged (BRET); assay: FRET or BRET
# Sequence of RelAp43, Nluc- or YFP-tagged (BRET) (Q04206 whole entry): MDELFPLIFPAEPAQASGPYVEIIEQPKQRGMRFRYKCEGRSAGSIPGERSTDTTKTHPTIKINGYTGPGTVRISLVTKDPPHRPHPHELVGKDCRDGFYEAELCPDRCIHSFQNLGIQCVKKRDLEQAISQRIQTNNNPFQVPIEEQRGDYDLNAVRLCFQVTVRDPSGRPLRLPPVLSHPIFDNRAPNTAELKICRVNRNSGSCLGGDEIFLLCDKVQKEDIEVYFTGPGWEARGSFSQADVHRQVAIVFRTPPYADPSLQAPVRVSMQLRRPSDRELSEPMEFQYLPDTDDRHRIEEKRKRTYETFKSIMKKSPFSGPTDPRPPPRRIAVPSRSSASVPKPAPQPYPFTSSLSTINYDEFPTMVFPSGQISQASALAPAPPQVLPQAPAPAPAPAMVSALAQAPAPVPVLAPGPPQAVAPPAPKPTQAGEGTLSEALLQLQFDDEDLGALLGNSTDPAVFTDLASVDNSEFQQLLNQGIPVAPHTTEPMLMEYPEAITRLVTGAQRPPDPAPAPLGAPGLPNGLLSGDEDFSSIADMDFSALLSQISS
# [3] = target: TPL2, Nluc- or YFP-tagged (BRET) (human) (UniProt P41279); assay: FRET or BRET
# Sequence of TPL2, Nluc- or YFP-tagged (BRET) (human) (P41279 whole entry): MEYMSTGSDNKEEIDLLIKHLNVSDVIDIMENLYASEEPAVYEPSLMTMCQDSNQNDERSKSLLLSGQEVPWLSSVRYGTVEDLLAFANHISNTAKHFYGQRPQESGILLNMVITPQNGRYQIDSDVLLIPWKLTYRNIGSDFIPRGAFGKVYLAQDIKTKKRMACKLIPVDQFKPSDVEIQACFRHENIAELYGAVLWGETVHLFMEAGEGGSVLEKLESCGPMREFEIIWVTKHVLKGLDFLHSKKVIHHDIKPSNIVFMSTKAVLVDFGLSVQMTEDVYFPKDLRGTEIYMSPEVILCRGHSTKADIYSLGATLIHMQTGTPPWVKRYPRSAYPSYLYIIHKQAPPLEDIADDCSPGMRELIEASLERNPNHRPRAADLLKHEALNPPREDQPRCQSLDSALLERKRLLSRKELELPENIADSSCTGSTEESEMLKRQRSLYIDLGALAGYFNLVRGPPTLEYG
# [4] = target: T1, p105, Nluc- or YFP-tagged (BRET); assay: FRET or BRET; conditions: partners not purified
# [5] = target: T2, TPL2, Nluc- or YFP-tagged (BRET) (human, UniProt P41279-1 1-467); assay: FRET or BRET; conditions: partners not purified
# T2 construct: also called MAP3K8
# T2 sequence (P41279 whole entry): as above
# [6] = target: TPL2, Glu1- or Glu2-tagged (PCA) (human, UniProt P41279-1 1-467); assay: split reporter (BiFC, NanoBiT); conditions: partners not purified
# Sequence of TPL2, Glu1- or Glu2-tagged (PCA) (P41279 whole entry): as above
molecule,measurement,setting,value
"MSAD, YFP-tagged (BRET) (from UniProt P16287 1-202) (natural protein)",netBRET,[1],0.022 and 0.063
"MTha, YFP-tagged (BRET) (natural protein)",netBRET,[2],0.022 to 0.109
same,netBRET,[3],> 0.05
"p50, Nluc- or YFP-tagged (BRET) (domain or fragment)",netBRET,[2],> 0.05
"p105, Nluc- or YFP-tagged (BRET) (from UniProt P19838 1-968) (natural protein)",netBRET,[2],> 0.05
B1,netBRET,[4],< 0.05
same,netBRET,[5],0.093
B2,other,[6],0.86
B3,netBRET,[5],> 0.05
